From WO2011147762A2

Assays:
[1] = target: ED-B fibronectin antigen protein (recombinant), bound to CNBr activated sepharose 4B (UniProt P02751); assay: ED-B sepharose column, % of total radioactivity bound; Study B3; thioglycerol 10 mg/mL; day 1
[2] = target: ED-B fibronectin antigen protein (recombinant), bound to CNBr activated sepharose 4B (UniProt P02751); assay: ED-B sepharose column, % of total radioactivity bound; Study B3; inositol 10 mg/mL; day 1
[3] = target: ED-B fibronectin antigen protein (recombinant), bound to CNBr activated sepharose 4B (UniProt P02751); assay: ED-B sepharose column, % of total radioactivity bound; Study A; sodium thiosulfate 50 mg/mL; day 3
[4] = target: ED-B fibronectin antigen protein (recombinant), bound to CNBr activated sepharose 4B (UniProt P02751); assay: ED-B sepharose column, % of total radioactivity bound; Study A; sodium thiosulfate 10 mg/mL; day 0
[5] = target: ED-B fibronectin antigen protein (recombinant), bound to CNBr activated sepharose 4B (UniProt P02751); assay: ED-B sepharose column, % of total radioactivity bound; Study A; methionine 10 mg/mL; day 5
[6] = target: ED-B fibronectin antigen protein (recombinant), bound to CNBr activated sepharose 4B (UniProt P02751); assay: ED-B sepharose column, % of total radioactivity bound; Study A; maltose 50 mg/mL; day 5
[7] = target: ED-B fibronectin antigen protein (recombinant), bound to CNBr activated sepharose 4B (UniProt P02751); assay: ED-B sepharose column, % of total radioactivity bound; Study B3; no-excipient control (PBS); day 1
[8] = target: ED-B fibronectin antigen protein (recombinant), bound to CNBr activated sepharose 4B (UniProt P02751); assay: ED-B sepharose column, % of total radioactivity bound; Study A; methionine 10 mg/mL; day 0
[9] = target: ED-B fibronectin antigen protein (recombinant), bound to CNBr activated sepharose 4B (UniProt P02751); assay: ED-B sepharose column, % of total radioactivity bound; Study A; sodium thiosulfate 5 mg/mL; day 1
[10] = target: ED-B fibronectin antigen protein (recombinant), bound to CNBr activated sepharose 4B (UniProt P02751); assay: ED-B sepharose column, % of total radioactivity bound; Study A; maltose 5 mg/mL; day 7
[11] = target: ED-B fibronectin antigen protein (recombinant), bound to CNBr activated sepharose 4B (UniProt P02751); assay: ED-B sepharose column, % of total radioactivity bound; Study B3; inositol 10 mg/mL; day 7
[12] = target: ED-B fibronectin antigen protein (recombinant), bound to CNBr activated sepharose 4B (UniProt P02751); assay: ED-B sepharose column, % of total radioactivity bound; Study B3; no-excipient control (PBS); day 5
[13] = target: ED-B fibronectin antigen protein (recombinant), bound to CNBr activated sepharose 4B (UniProt P02751); assay: ED-B sepharose column, % of total radioactivity bound; Study A; sodium thiosulfate 25 mg/mL; day 7
[14] = target: ED-B fibronectin antigen protein (recombinant), bound to CNBr activated sepharose 4B (UniProt P02751); assay: ED-B sepharose column, % of total radioactivity bound; Study B3; thioglycerol 10 mg/mL; day 0
[15] = target: ED-B fibronectin antigen protein (recombinant), bound to CNBr activated sepharose 4B (UniProt P02751); assay: ED-B sepharose column, % of total radioactivity bound; Study B3; no-excipient control (PBS); day 2
[16] = target: ED-B fibronectin antigen protein (recombinant), bound to CNBr activated sepharose 4B (UniProt P02751); assay: ED-B sepharose column, % of total radioactivity bound; Study B3; no-excipient control (PBS); day 7
[17] = target: ED-B fibronectin antigen protein (recombinant), bound to CNBr activated sepharose 4B (UniProt P02751); assay: ED-B sepharose column, % of total radioactivity bound; Study B3; inositol 10 mg/mL; day 2
[18] = target: ED-B fibronectin antigen protein (recombinant), bound to CNBr activated sepharose 4B (UniProt P02751); assay: ED-B sepharose column, % of total radioactivity bound; Study A; trolox 5 mg/mL; day 1
[19] = target: ED-B fibronectin antigen protein (recombinant), bound to CNBr activated sepharose 4B (UniProt P02751); assay: ED-B sepharose column, % of total radioactivity bound; Study B3; ascorbic acid 25 mg/mL; day 2
[20] = target: ED-B fibronectin antigen protein (recombinant), bound to CNBr activated sepharose 4B (UniProt P02751); assay: ED-B sepharose column, % of total radioactivity bound; Study A; inositol 10 mg/mL; day 3
[21] = target: ED-B fibronectin antigen protein (recombinant), bound to CNBr activated sepharose 4B (UniProt P02751); assay: ED-B sepharose column, % of total radioactivity bound; Study A; trolox 5 mg/mL; day 3
[22] = target: ED-B fibronectin antigen protein (recombinant), bound to CNBr activated sepharose 4B (UniProt P02751); assay: ED-B sepharose column, % of total radioactivity bound; Study A; sodium thiosulfate 5 mg/mL; day 0
[23] = target: ED-B fibronectin antigen protein (recombinant), bound to CNBr activated sepharose 4B (UniProt P02751); assay: ED-B sepharose column, % of total radioactivity bound; Study A; sodium thiosulfate 50 mg/mL; day 0
[24] = target: ED-B fibronectin antigen protein (recombinant), bound to CNBr activated sepharose 4B (UniProt P02751); assay: ED-B sepharose column, % of total radioactivity bound; Study A; maltose 50 mg/mL; day 1
[25] = target: ED-B fibronectin antigen protein (recombinant), bound to CNBr activated sepharose 4B (UniProt P02751); assay: ED-B sepharose column, % of total radioactivity bound; Study A; no-excipient control (saline); day 0
[26] = target: ED-B fibronectin antigen protein (recombinant), bound to CNBr activated sepharose 4B (UniProt P02751); assay: ED-B sepharose column, % of total radioactivity bound; Study A; inositol 5 mg/mL; day 5
[27] = target: ED-B fibronectin antigen protein (recombinant), bound to CNBr activated sepharose 4B (UniProt P02751); assay: ED-B sepharose column, % of total radioactivity bound; Study A; inositol 5 mg/mL; day 0
[28] = target: ED-B fibronectin antigen protein (recombinant), bound to CNBr activated sepharose 4B (UniProt P02751); assay: ED-B sepharose column, % of total radioactivity bound; Study A; sodium thiosulfate 5 mg/mL; day 5

Chain of UniProt P02751 (P02751 1266-1356 limits assumed): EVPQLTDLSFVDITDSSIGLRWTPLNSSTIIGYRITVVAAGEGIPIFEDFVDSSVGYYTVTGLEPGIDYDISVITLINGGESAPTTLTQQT
Chain of 131I L19-SIP (radioiodinated L19 SIP homodimer) (chain): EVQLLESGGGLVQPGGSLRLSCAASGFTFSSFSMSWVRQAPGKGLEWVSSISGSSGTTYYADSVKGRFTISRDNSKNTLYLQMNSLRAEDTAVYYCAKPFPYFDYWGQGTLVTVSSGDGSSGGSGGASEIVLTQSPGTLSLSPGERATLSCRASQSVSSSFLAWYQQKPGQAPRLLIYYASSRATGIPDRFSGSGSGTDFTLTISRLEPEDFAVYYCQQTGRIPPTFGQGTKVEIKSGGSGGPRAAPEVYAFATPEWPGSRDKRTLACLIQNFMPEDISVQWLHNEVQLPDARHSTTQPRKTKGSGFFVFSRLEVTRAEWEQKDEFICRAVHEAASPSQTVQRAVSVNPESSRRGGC
Chain of 131I L19-SIP (radioiodinated L19 SIP homodimer) (chain): as above

In the case of “131I L19-SIP (radioiodinated L19 SIP homodimer)”, the Immunoreactivity (IR) (%) [1] is reported as 60.7%, the Immunoreactivity (IR) (%) [2] is reported as 77.1% and the Immunoreactivity (%) [3] is reported as 91.7%. The Immunoreactivity (%) [4] was 96.2%, the Immunoreactivity (%) [5] was 64.2% and the Immunoreactivity (%) [6] was 55.6%. The Immunoreactivity (IR) (%) [7] was 73.2%, the Immunoreactivity (%) [8] was 96.6% and the Immunoreactivity (%) [9] was 94.4%. The Immunoreactivity (%) [10] was 50%, the Immunoreactivity (IR) (%) [11] was 61.9% and the Immunoreactivity (IR) (%) [12] was 56.4%. The Immunoreactivity (%) [13] was 78.5%, the Immunoreactivity (IR) (%) [14] was 80.1% and the Immunoreactivity (IR) (%) [15] was 71.3%. For the same substance, the Immunoreactivity (IR) (%) [16] was 28.2%, the Immunoreactivity (IR) (%) [17] was 68.8% and the Immunoreactivity (%) [18] was 84.8%. It also gave an Immunoreactivity (IR) (%) [19] of 75%, an Immunoreactivity (%) [20] of 70.4% and an Immunoreactivity (%) [21] of 77.6%. The Immunoreactivity (%) [22] was 97.3%, the Immunoreactivity (%) [23] was 95.8% and the Immunoreactivity (%) [24] was 85.9%. The Immunoreactivity (%) [25] was 94.3%, the Immunoreactivity (%) [26] was 56.2% and the Immunoreactivity (%) [27] was 94.8%. The Immunoreactivity (%) [28] was 79.4%.
